Where “and” joins values, the source holds several entries; their conditions need not be identical. Identical values can stand only once. Like-named read-outs stand apart in the source and are kept apart here.
Key:
S. aureus LukF [1] = molecular target: T1, S. aureus LukF (Staphylococcus aureus)
S. aureus LukD [2] = molecular target: T2, S. aureus LukD (Staphylococcus aureus, UniProt Q2FXB1 27-327)
T2 sequence: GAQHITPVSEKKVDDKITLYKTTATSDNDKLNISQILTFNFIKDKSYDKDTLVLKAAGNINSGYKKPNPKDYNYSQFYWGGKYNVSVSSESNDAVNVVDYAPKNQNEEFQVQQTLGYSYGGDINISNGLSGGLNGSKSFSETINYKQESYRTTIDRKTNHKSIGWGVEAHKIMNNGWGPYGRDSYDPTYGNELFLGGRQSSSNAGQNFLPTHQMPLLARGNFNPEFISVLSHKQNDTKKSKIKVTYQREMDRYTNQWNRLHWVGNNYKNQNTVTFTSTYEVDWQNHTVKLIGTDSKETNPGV

S. aureus HlgB [3] = molecular target: T3, S. aureus HlgB (Staphylococcus aureus, UniProt P0A075 27-325)
T3 sequence: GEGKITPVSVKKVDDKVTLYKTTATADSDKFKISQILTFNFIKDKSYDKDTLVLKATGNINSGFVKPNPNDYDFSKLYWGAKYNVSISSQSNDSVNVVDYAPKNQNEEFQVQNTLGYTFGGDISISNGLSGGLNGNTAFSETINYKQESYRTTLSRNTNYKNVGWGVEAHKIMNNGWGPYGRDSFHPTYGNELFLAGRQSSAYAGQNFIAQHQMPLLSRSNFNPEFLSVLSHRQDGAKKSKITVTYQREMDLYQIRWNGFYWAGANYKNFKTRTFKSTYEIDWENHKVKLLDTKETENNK

LukSF [4] = molecular target: T4, LukSF (Staphylococcus aureus); experiment: cell-based or functional assay
HlgAB [5] = molecular target: T5, HlgAB (Staphylococcus aureus, UniProt P0A074 30-309); experiment: cell-based or functional assay
T5 sequence 1: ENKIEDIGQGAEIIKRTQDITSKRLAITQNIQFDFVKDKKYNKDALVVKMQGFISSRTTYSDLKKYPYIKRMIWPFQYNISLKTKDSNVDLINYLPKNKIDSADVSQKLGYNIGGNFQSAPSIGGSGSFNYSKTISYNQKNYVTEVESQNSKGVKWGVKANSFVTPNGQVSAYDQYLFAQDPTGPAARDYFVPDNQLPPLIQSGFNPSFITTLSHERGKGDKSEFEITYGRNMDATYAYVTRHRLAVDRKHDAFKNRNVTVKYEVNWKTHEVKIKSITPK
T5 sequence 2: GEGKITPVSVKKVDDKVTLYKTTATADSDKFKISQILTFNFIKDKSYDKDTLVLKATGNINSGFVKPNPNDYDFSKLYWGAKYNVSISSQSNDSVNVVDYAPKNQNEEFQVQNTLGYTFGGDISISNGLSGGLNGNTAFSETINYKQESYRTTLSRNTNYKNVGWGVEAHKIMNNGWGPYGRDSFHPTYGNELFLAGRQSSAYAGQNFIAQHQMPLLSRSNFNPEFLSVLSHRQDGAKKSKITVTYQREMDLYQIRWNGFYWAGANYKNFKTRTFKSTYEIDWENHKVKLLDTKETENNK

LukSF [6] = molecular target: T4, LukSF; experiment: cell-based or functional assay; remark: listed apart in the source
HlgAB [7] = molecular target: T5, HlgAB; experiment: cell-based or functional assay; remark: listed apart in the source
LukSF [8] = molecular target: T4, LukSF; experiment: cell-based or functional assay; remark: listed apart in the source
HlgAB [9] = molecular target: T5, HlgAB; experiment: cell-based or functional assay; remark: listed apart in the source
S. aureus LukF [10] = molecular target: T1, S. aureus LukF; experiment: method not stated at Table 8; BLI (Octet) is described in Example 4
LukSF [11] = molecular target: T4, LukSF; experiment: cell-based or functional assay; remark: listed apart in the source
LukED = LukED (Staphylococcus aureus, UniProt O54081 29-314); experiment: cell-based or functional assay
HlgCB = molecular target: T6, HlgCB (Staphylococcus aureus, UniProt Q07227 30-315); experiment: cell-based or functional assay
T6 sequence 1: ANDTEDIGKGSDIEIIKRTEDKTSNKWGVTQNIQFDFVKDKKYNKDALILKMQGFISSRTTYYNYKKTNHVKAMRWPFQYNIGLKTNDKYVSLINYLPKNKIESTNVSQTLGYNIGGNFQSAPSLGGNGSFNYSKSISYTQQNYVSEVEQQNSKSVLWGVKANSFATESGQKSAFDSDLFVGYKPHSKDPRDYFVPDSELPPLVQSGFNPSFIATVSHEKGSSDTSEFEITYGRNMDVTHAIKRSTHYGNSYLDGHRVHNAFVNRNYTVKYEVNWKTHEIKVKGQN
T6 sequence 2: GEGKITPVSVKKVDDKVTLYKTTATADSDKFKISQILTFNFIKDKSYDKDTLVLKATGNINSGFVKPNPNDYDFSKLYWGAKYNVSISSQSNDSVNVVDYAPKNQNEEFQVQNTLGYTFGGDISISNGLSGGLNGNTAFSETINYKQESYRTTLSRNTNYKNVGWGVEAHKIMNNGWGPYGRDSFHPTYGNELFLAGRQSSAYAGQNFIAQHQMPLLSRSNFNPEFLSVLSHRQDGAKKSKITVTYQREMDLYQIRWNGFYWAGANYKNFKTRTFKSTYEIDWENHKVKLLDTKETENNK

S. aureus LukF [12] = molecular target: T1, S. aureus LukF; experiment: BLI (Octet384), antibody captured on anti-human IgG Fc biosensors, antigen in solution; dark sample
S. aureus LukD [13] = molecular target: T2, S. aureus LukD; experiment: as above
S. aureus HlgB [14] = molecular target: T3, S. aureus HlgB; experiment: as above
S. aureus LukF [15] = molecular target: T1, S. aureus LukF; experiment: BLI (Octet384), antibody captured on anti-human IgG Fc biosensors, antigen in solution; light-stressed sample
S. aureus LukD [16] = molecular target: T2, S. aureus LukD; experiment: as above
S. aureus HlgB [17] = molecular target: T3, S. aureus HlgB; experiment: as above

B1: SAN481-YTE (antibody)
heavy: QLQLVESGGGAVQPGRSLKLSCAASGFNFSTYAMHWVRQAPGRGLEWVAVTSFDGSNEYYIDSVKGRFTISRDNTKNTLYLQMTGLRVEDTALYFCARDEYTGGWYSVGYWGQGTLVTVSSASTKGPSVFPLAPSSKSTSGGTAALGCLVKDYFPEPVTVSWNSGALTSGVHTFPAVLQSSGLYSLSSVVTVPSSSLGTQTYICNVNHKPSNTKVDKRVEPKSCDKTHTCPPCPAPELLGGPSVFLFPPKPKDTLYITREPEVTCVVVDVSHEDPEVKFNWYVDGVEVHNAKTKPREEQYNSTYRVVSVLTVLHQDWLNGKEYKCKVSNKALPAPIEKTISKAKGQPREPQVYTLPPSREEMTKNQVSLTCLVKGFYPSDIAVEWESNGQPENNYKTTPPVLDSDGSFFLYSKLTVDKSRWQQGNVFSCSVMHEALHNHYTQKSLSLSPGK
light: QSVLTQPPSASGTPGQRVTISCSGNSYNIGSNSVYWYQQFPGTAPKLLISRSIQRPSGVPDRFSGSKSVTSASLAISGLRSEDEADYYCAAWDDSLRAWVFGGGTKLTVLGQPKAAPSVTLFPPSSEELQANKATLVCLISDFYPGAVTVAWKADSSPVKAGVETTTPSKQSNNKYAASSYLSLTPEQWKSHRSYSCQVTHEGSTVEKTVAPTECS
notes: also called QD1
S. aureus LukF [1]
  Kd: 0.232 nM and 0.226 nM
  koff: 6.55e-05 s⁻¹ and 6.47e-05 s⁻¹
  kon: 283000 M⁻¹ s⁻¹ and 287000 M⁻¹ s⁻¹
S. aureus LukD [2]
  Kd: < 0.001 nM
  koff: < 1e-07 s⁻¹
  kon: 277000 M⁻¹ s⁻¹ and 294000 M⁻¹ s⁻¹
S. aureus HlgB [3]
  Kd: < 0.001 nM
  koff: < 1e-07 s⁻¹
  kon: 240000 M⁻¹ s⁻¹ and 265000 M⁻¹ s⁻¹
LukSF [4]
  IC50 (LukSF) HL-60: 0.15 µg/mL
HlgAB [5]
  IC50 (HIgAB) HL-60: 0.54 µg/mL
LukSF [6]
  IC50 Fold loss vs. WT (LukSF): 0.938 fold
  IC50 for LukSF: 0.15 µg/mL
HlgAB [7]
  IC50 Fold loss vs. WT (HIgAB): 0.95 fold
  IC50 for HIgAB: 0.54 µg/mL
LukSF [8]
  IC50 (LukSF) HL-60; Dark sample: 0.209 µg/mL
  IC50 (LukSF) HL-60; Light sample: 0.233 µg/mL
HlgAB [9]
  IC50 (HIgAB) HL-60; Dark sample: 0.704 µg/mL
  IC50 (HIgAB) HL-60; Light sample: 0.821 µg/mL
S. aureus LukF [10]
  Kd: 0.0148 nM

B2: SAN481-SYT-YTE (antibody, V domains shown)
VH: QLQLVESGGGAVQPGRSLKLSCAASGFTFSTYAMHWVRQAPGRGLEWVAVTSFDGSNEYYIDSVKGRFTISRDNTKNTLYLQMTGLRVEDTALYFCARDEYTGGWYSVGYWGQGTLVTVSS
VL: QSVLTQPPSASGTPGQRVTISCSGSSYNIGSNYVYWYQQFPGTAPKLLISRSIQRPSGVPDRFSGSKSVTSASLAISGLRSEDEADYYCAAWDDSLRAWVFGGGTKLTVLG
notes: also called QD5
LukSF [4]
  IC50 (LukSF) HL-60: 0.16 µg/mL
HlgAB [5]
  IC50 (HIgAB) HL-60: 0.54 µg/mL
LukSF [6]
  IC50 Fold loss vs. WT (LukSF): 1.01 fold
  IC50 for LukSF: 0.162 µg/mL
HlgAB [7]
  IC50 Fold loss vs. WT (HIgAB): 0.951 fold
  IC50 for HIgAB: 0.54 µg/mL
LukSF [8]
  IC50 (LukSF) HL-60; Dark sample: 0.163 µg/mL
  IC50 (LukSF) HL-60; Light sample: 0.184 µg/mL
HlgAB [9]
  IC50 (HIgAB) HL-60; Dark sample: 0.576 µg/mL
  IC50 (HIgAB) HL-60; Light sample: 0.645 µg/mL
LukSF [11]
  IC50 (read off the curve): ~0.4 µg/mL
LukED
  IC50 (read off the curve): ~4 µg/mL
HlgCB
  IC50 (read off the curve): ~2 µg/mL
S. aureus LukF [10]
  Kd: 0.101 nM
S. aureus LukF [12]
  Kd: 0.101 nM
  koff: 3.69e-05 s⁻¹
  kon: 365000 M⁻¹ s⁻¹
S. aureus LukD [13]
  Kd: < 0.001 nM
  koff: < 1e-07 s⁻¹
  kon: 279000 M⁻¹ s⁻¹
S. aureus HlgB [14]
  Kd: 0.0191 nM
  koff: 4.88e-06 s⁻¹
  kon: 255000 M⁻¹ s⁻¹
S. aureus LukF [15]
  Kd: < 0.001 nM
  koff: < 1e-07 s⁻¹
  kon: 257000 M⁻¹ s⁻¹
S. aureus LukD [16]
  Kd: < 0.001 nM
  koff: < 1e-07 s⁻¹
  kon: 263000 M⁻¹ s⁻¹
S. aureus HlgB [17]
  Kd: < 0.001 nM
  koff: < 1e-07 s⁻¹
  kon: 244000 M⁻¹ s⁻¹

B3: SAN481-TF-YTE (antibody, V domains shown)
VH: QLQLVESGGGAVQPGRSLKLSCAASGFTFSTYAMHWVRQAPGRGLEWVAVTSFDGSNEYYIDSVKGRFTISRDNTKNTLYLQMTGLRVEDTALYFCARDEYTGGFYSVGYWGQGTLVTVSS
VL: QSVLTQPPSASGTPGQRVTISCSGNSYNIGSNSVYWYQQFPGTAPKLLISRSIQRPSGVPDRFSGSKSVTSASLAISGLRSEDEADYYCAAWDDSLRAWVFGGGTKLTVLG
notes: also called QD4; SAN481-VH28T100E-YTE
LukSF [4]
  IC50 (LukSF) HL-60: 0.81 µg/mL
HlgAB [5]
  IC50 (HIgAB) HL-60: 0.44 µg/mL
LukSF [6]
  IC50 Fold loss vs. WT (LukSF): 5.07 fold
  IC50 for LukSF: 0.811 µg/mL
HlgAB [7]
  IC50 Fold loss vs. WT (HIgAB): 0.775 fold
  IC50 for HIgAB: 0.441 µg/mL
S. aureus LukF [10]
  Kd: 1.21 nM

B4: SAN481-SY-YTE (antibody, V domains shown)
VH: QLQLVESGGGAVQPGRSLKLSCAASGFNFSTYAMHWVRQAPGRGLEWVAVTSFDGSNEYYIDSVKGRFTISRDNTKNTLYLQMTGLRVEDTALYFCARDEYTGGWYSVGYWGQGTLVTVSS
VL: QSVLTQPPSASGTPGQRVTISCSGSSYNIGSNYVYWYQQFPGTAPKLLISRSIQRPSGVPDRFSGSKSVTSASLAISGLRSEDEADYYCAAWDDSLRAWVFGGGTKLTVLG
notes: also called QD2; SAN481VL26S32Y-YTE
LukSF [4]
  IC50 (LukSF) HL-60: 0.18 µg/mL
HlgAB [5]
  IC50 (HIgAB) HL-60: 0.55 µg/mL
LukSF [6]
  IC50 Fold loss vs. WT (LukSF): 1.14 fold
  IC50 for LukSF: 0.183 µg/mL
HlgAB [7]
  IC50 Fold loss vs. WT (HIgAB): 0.97 fold
  IC50 for HIgAB: 0.551 µg/mL
LukSF [8]
  IC50 (LukSF) HL-60; Dark sample: 0.221 µg/mL
  IC50 (LukSF) HL-60; Light sample: 0.241 µg/mL
HlgAB [9]
  IC50 (HIgAB) HL-60; Dark sample: 0.721 µg/mL
  IC50 (HIgAB) HL-60; Light sample: 0.736 µg/mL
S. aureus LukF [10]
  Kd: 0.101 nM

B5: SAN481-T-YTE (antibody, V domains shown)
VH: QLQLVESGGGAVQPGRSLKLSCAASGFTFSTYAMHWVRQAPGRGLEWVAVTSFDGSNEYYIDSVKGRFTISRDNTKNTLYLQMTGLRVEDTALYFCARDEYTGGWYSVGYWGQGTLVTVSS
VL: QSVLTQPPSASGTPGQRVTISCSGNSYNIGSNSVYWYQQFPGTAPKLLISRSIQRPSGVPDRFSGSKSVTSASLAISGLRSEDEADYYCAAWDDSLRAWVFGGGTKLTVLG
notes: also called QD3; SAN481VH28T-YTE
LukSF [4]
  IC50 (LukSF) HL-60: 0.17 µg/mL
HlgAB [5]
  IC50 (HIgAB) HL-60: 0.54 µg/mL
LukSF [6]
  IC50 Fold loss vs. WT (LukSF): 1.04 fold
  IC50 for LukSF: 0.166 µg/mL
HlgAB [7]
  IC50 Fold loss vs. WT (HIgAB): 0.948 fold
  IC50 for HIgAB: 0.539 µg/mL
LukSF [8]
  IC50 (LukSF) HL-60; Dark sample: 0.193 µg/mL
  IC50 (LukSF) HL-60; Light sample: 0.205 µg/mL
HlgAB [9]
  IC50 (HIgAB) HL-60; Dark sample: 0.707 µg/mL
  IC50 (HIgAB) HL-60; Light sample: 0.624 µg/mL
S. aureus LukF [10]
  Kd: < 0.001 nM
